The nature of data set [1]: SEC; each antibody alone at 100 mg/mL (second study also 50 mg/mL) in 20 mM acetate, 9% sucrose, 0.01% polysorbate 80, pH 5.2, stored at 40°C (also 25°C) up to 12 weeks; diluted 100-fold before SE-HPLC; TSKgel G3000SWxl, 0.2 M sodium phosphate pH 6.8, column at 30°C; dimer and multimer defined by …. For orientation: SEC sorts molecules by how far they enter the pores of the column.

The next data set deals with PGT121. As to the kind of experiment: SEC; each antibody alone, stored at 30°C; data not shown.
Data set [2] has as its target 3BNC117. The data set is described as above.
Data set [3] has as its target 3BNC117. Kind of data set: SEC; each antibody alone at 100 mg/mL (second study also 50 mg/mL) in 20 mM acetate, 9% sucrose, 0.01% polysorbate 80, pH 5.2, stored at 40°C (also 25°C) up to 12 weeks; diluted 100-fold before SE-HPLC; TSKgel G3000SWxl, 0.2 M sodium phosphate pH 6.8, column at 30°C; dimer and multimer defined by elution time relative to the monomer.

In general, stoichiometry N refers to the number of molecules, sites or subunits per partner or assembly.

PGT121: in data set [1], the “increase of the multimers' share of the SE-HPLC area against day 0 (12 weeks, 40°C)” value was “∼3% increase compared to day 0 at 40 °C”. In turn, PGT121 (antibody) returned a stoichiometry N with PGT121 of 2. Regarding 3BNC117, the “increase of the dimer's share of the SE-HPLC area against day 0 (12 weeks, 40°C)” value in data set [1] is “∼6% increase compared to day 0 at 40 °C”. Take 3BNC117 (antibody): the stoichiometry N with 3BNC117 [2] came to 2. Also, in the data set with 3BNC117 [3], the rate of dimer formation at 40°C relative to PGT121 is 3.5 fold and the stoichiometry N was determined as 2.

(Values after publication PMC6269598.)
